Experimental data published in article PMC4354016, “Centromeric binding and activity of Protein Phosphatase 4” (Nature Communications, 2015).

Experiments:
Settings in all cases: both partners purified
[1] = target: T1, recombinant Flfl^1–168 (untagged) (Drosophila melanogaster, UniProt Q9VFS5 1-168); assay: SEC; Flfl^1–168 and CENP-C^FBD mixed ~1:1 molar ratio, 16 h on ice, Superdex 200; fractions on SDS-PAGE, Coomassie
T1 construct: pETDuet-1 (MCS1), TEV site between His tag and Flfl; source: E. coli Rosetta2(DE3)pLysS, purified (Ni-NTA, TEV cleavage, re-incubation with Ni-NTA); not shown: 6xHis, N-terminal, cleaved
T1 sequence (looked up): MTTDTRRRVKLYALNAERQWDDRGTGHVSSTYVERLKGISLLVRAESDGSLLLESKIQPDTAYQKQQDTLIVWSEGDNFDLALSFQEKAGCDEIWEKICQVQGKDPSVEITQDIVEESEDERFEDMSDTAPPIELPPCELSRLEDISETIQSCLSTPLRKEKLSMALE

[2] = target: T1, recombinant Flfl^1–168 (untagged); assay: peptide or protein array; substitution array: every residue of the 19-mer FIM replaced by the other amino acids, on cellulose membrane; 100 nM untagged Flfl^1–168, 4 °C overnight; anti-Flfl detection
[3] = target: T2, Flfl^1–122 (Drosophila melanogaster, UniProt Q9VFS5 1-122); assay: crystal structure; Flfl^1–122 at 22 mg/ml incubated overnight with FIM peptide 1:1.3, sitting drop, ammonium sulfate; 1.5 Å
T2 construct: Falafel (Flfl) residues 1-122, holds the EVH1 domain; residues 4-114 are in the final model; also called Falafel (1–122); His::TEV::Flfl^1–122aa; source: E. coli BL21 (DE3) RIL, purified (HisTrap, TEV cleavage, anion exchange, SEC); not shown: 6xHis, N-terminal, cleaved
T2 sequence (looked up): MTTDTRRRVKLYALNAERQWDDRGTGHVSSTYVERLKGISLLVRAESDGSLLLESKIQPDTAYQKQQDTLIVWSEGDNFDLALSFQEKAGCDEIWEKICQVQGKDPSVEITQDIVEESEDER

B1: recombinant CENP-C^FBD (untagged) (domain or fragment, Drosophila melanogaster, UniProt Q9VHP9 1002-1093, looked up)
chain: IDQNSDDVPSRNPSPSRTLLSDDVPSTSRAALEFLQRSQNMSKSRPPDESSADVVFKKPLAPAPRAKSKKGKSEVDKLKLAKMPVEAEELNT
notes: pETDuet-1 (MCS1), TEV site between His tag and FBD; also called His::TEV::CENP-C^FBD; source: E. coli Rosetta2(DE3)pLysS, purified (Ni-NTA, TEV cleavage, re-incubation with Ni-NTA); not shown: 6xHis, N-terminal, cleaved
B1: binds [1].

B2: CENP-C^FIM peptide (peptide)
peptide: PDESSADVVFKKPLAPAPR
notes: source: synthetic peptide (in solution for crystallisation; spotted onto a cellulose membrane for the substitution array)
B2: binds [2]; binds [3].
